Results taken from patent US20260242735A1 (UNIVERSIT T BASEL, published 2026).

Assays:
Experiment in all cases: alanine scan, flow cytometry;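 further: HEK293-T cells transiently expressing single-residue alanine mutants of CD33 (alanine swapped to serine), antibody binding read by fluorescence in duplicate, background-subtracted, expressed relative to wild-type CD33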
human CD33 P19A = human CD33 P19A (human, UniProt P20138 18-364)
Protocol: (§1) An alanine scan on human CD33 was performed to the determine the residues on CD33 that are involved in binding to the antibodies investigated. […] Briefly, a mutation library of CD33 was created by high-throughput, site-directed mutagenesis. Each residue was individually mutated to alanine, with alanine codons mutated to serine. The mutant library was arrayed in 384-well microplates and transiently transfected into HEK293-T. Following transfection, cells were incubated with the indicated antibodies (IgG or Fab) at concentrations pre-determined using an independent immunofluorescence titration curve on wild type CD33. […] Binding of each antibody to each mutant clone was determined in duplicates. For each point, background fluorescence was subtracted from the raw data, which were then normalized to antibody reactivity with wild type CD33.
(§2) Critical residues for antibody binding (outlined in dark grey) were residues whose mutations led to a binding of the test Abs of less than 20%. Additional secondary residues (outlined in light grey) were identified that led to a binding of the test Abs of between 20 and 40% as compared to the wild type CD33.

human CD33 R91A = human CD33 R91A (human, UniProt P20138 18-364)
Protocol: as §1, §2

human CD33 P55A = human CD33 P55A (human, UniProt P20138 18-364)
Protocol: as §1, §2

human CD33 G34A = human CD33 G34A (human, UniProt P20138 18-364)
Protocol: as §1, §2

human CD33 A74S = human CD33 A74S (human, UniProt P20138 18-364)
Protocol: as §1, §2

human CD33 S28A = human CD33 S28A (human, UniProt P20138 18-364)
Protocol: as §1, §2

human CD33 P40A = human CD33 P40A (human, UniProt P20138 18-364)
Protocol: as §1, §2

human CD33 L92A = human CD33 L92A (human, UniProt P20138 18-364)
Protocol: as §1, §2

human CD33 Q80A = human CD33 Q80A (human, UniProt P20138 18-364)
Protocol: as §1, §2

human CD33 E84A = human CD33 E84A (human, UniProt P20138 18-364)
Protocol: as §1, §2

human CD33 H57A = human CD33 H57A (human, UniProt P20138 18-364)
Protocol: as §1, §2

human CD33 D79A = human CD33 D79A (human, UniProt P20138 18-364)
Protocol: as §1, §2

human CD33 F61A = human CD33 F61A (human, UniProt P20138 18-364)
Protocol: as §1, §2

human CD33 T86A = human CD33 T86A (human, UniProt P20138 18-364)
Protocol: as §1, §2

human CD33 K52A = human CD33 K52A (human, UniProt P20138 18-364)
Protocol: as §1, §2

human CD33 F43A = human CD33 F43A (human, UniProt P20138 18-364)
Protocol: as §1, §2

human CD33 W60A = human CD33 W60A (human, UniProt P20138 18-364)
Protocol: as §1, §2

human CD33 G64A = human CD33 G64A (human, UniProt P20138 18-364)
Protocol: as §1, §2

human CD33 W22A = human CD33 W22A (human, UniProt P20138 18-364)
Protocol: as §1, §2

human CD33 E63A = human CD33 E63A (human, UniProt P20138 18-364)
Protocol: as §1, §2

human CD33 D18A = human CD33 D18A (human, UniProt P20138 19-364)
Protocol: as §1, §2

human CD33 R62A = human CD33 R62A (human, UniProt P20138 18-364)
Protocol: as §1, §2

human CD33 I47A = human CD33 I47A (human, UniProt P20138 18-364)
Protocol: as §1, §2

human CD33 V82A = human CD33 V82A (human, UniProt P20138 18-364)
Protocol: as §1, §2

human CD33 P46A = human CD33 P46A (human, UniProt P20138 18-364)
Protocol: as §1, §2

human CD33 E85A = human CD33 E85A (human, UniProt P20138 18-364)
Protocol: as §1, §2

human CD33 G58A = human CD33 G58A (human, UniProt P20138 18-364)
Protocol: as §1, §2

human CD33 H45A = human CD33 H45A (human, UniProt P20138 18-364)
Protocol: as §1, §2

human CD33 N20A = human CD33 N20A (human, UniProt P20138 18-364)
Protocol: as §1, §2

human CD33 T30A = human CD33 T30A (human, UniProt P20138 18-364)
Protocol: as §1, §2

human CD33 Q24A = human CD33 Q24A (human, UniProt P20138 18-364)
Protocol: as §1, §2

human CD33 N53A = human CD33 N53A (human, UniProt P20138 18-364)
Protocol: as §1, §2

human CD33 G88A = human CD33 G88A (human, UniProt P20138 18-364)
Protocol: as §1, §2

human CD33 F90A = human CD33 F90A (human, UniProt P20138 18-364)
Protocol: as §1, §2

human CD33 S68A = human CD33 S68A (human, UniProt P20138 18-364)
Protocol: as §1, §2

human CD33 E81A = human CD33 E81A (human, UniProt P20138 18-364)
Protocol: as §1, §2

human CD33 V56A = human CD33 V56A (human, UniProt P20138 18-364)
Protocol: as §1, §2

human CD33 V31A = human CD33 V31A (human, UniProt P20138 18-364)
Protocol: as §1, §2

human CD33 V29A = human CD33 V29A (human, UniProt P20138 18-364)
Protocol: as §1, §2

human CD33 R69A = human CD33 R69A (human, UniProt P20138 18-364)
Protocol: as §1, §2

human CD33 I67A = human CD33 I67A (human, UniProt P20138 18-364)
Protocol: as §1, §2

human CD33 K77A = human CD33 K77A (human, UniProt P20138 18-364)
Protocol: as §1, §2

human CD33 G64A, sequence (P20138 18-364 G64A limits assumed): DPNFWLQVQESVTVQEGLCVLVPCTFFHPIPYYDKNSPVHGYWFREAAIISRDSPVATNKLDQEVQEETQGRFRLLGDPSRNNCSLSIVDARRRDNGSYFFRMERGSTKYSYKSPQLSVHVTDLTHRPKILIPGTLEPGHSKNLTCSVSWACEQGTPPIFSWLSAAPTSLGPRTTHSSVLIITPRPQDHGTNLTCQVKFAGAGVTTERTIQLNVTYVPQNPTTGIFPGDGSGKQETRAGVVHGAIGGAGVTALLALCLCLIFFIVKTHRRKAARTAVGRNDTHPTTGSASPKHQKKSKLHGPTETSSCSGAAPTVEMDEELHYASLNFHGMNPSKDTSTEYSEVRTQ
human CD33 Q24A, sequence (P20138 18-364 Q24A limits assumed): as the sequence (P20138 18-364 G64A limits assumed) above, with Q7A, A47G counted along it
human CD33 F90A, sequence (P20138 18-364 F90A limits assumed): as the sequence (P20138 18-364 G64A limits assumed) above, with A47G, F73A counted along it
human CD33 S68A, sequence (P20138 18-364 S68A limits assumed): as the sequence (P20138 18-364 G64A limits assumed) above, with A47G, S51A counted along it
human CD33 W60A, sequence (P20138 18-364 W60A limits assumed): as the sequence (P20138 18-364 G64A limits assumed) above, with W43A, A47G counted along it
human CD33 H45A, sequence (P20138 18-364 H45A limits assumed): as the sequence (P20138 18-364 G64A limits assumed) above, with H28A, A47G counted along it
human CD33 A74S, sequence (P20138 18-364 A74S limits assumed): as the sequence (P20138 18-364 G64A limits assumed) above, with A47G, A57S counted along it
human CD33 F43A, sequence (P20138 18-364 F43A limits assumed): as the sequence (P20138 18-364 G64A limits assumed) above, with F26A, A47G counted along it
human CD33 P55A, sequence (P20138 18-364 P55A limits assumed): as the sequence (P20138 18-364 G64A limits assumed) above, with P38A, A47G counted along it
human CD33 E85A, sequence (P20138 18-364 E85A limits assumed): as the sequence (P20138 18-364 G64A limits assumed) above, with A47G, E68A counted along it
human CD33 W22A, sequence (P20138 18-364 W22A limits assumed): as the sequence (P20138 18-364 G64A limits assumed) above, with W5A, A47G counted along it
human CD33 T30A, sequence (P20138 18-364 T30A limits assumed): as the sequence (P20138 18-364 G64A limits assumed) above, with T13A, A47G counted along it
human CD33 I67A, sequence (P20138 18-364 I67A limits assumed): as the sequence (P20138 18-364 G64A limits assumed) above, with A47G, I50A counted along it
human CD33 I47A, sequence (P20138 18-364 I47A limits assumed): as the sequence (P20138 18-364 G64A limits assumed) above, with I30A, A47G counted along it

B1: Refmab #2 (antibody, V domains shown)
VH: QVQLVQSGAEVKKPGSSVKVSCKASGGTFSDYAISWVRQAPGQGLEWMGRIIPILGVADYAQKFQGRVTITADKSTRTAYMELSSLRSEDTAVYYCARNWADAFDIWGQGTMVTVSS
VL: DIQLTQSPSSLSASVGDRVTITCRASQGISSVLAWYQQKPGKAPKLLIYDASSLESGVPSRFSGSGSGTDFTLTISSLQPEDFATYYCQQFDSSITFGQGTKLEIK
notes: Full-length format is human IgG1 Fc silent (PG-LALA); The alanine scan used IgG or Fab
Human CD33 P19A
  Mean % WT Binding: 111 % WT
Human CD33 R91A
  Mean % WT Binding: 119 % WT
Human CD33 P55A
  Mean % WT Binding: 120 % WT
Human CD33 G34A
  Mean % WT Binding: 105 % WT
Human CD33 A74S
  Mean % WT Binding: 91.7 % WT
Human CD33 S28A
  Mean % WT Binding: 117 % WT
Human CD33 P40A
  Mean % WT Binding: 101 % WT
Human CD33 L92A
  Mean % WT Binding: 106 % WT
Human CD33 Q80A
  Mean % WT Binding: 112 % WT
Human CD33 E84A
  Mean % WT Binding: 114 % WT
Human CD33 H57A
  Mean % WT Binding: 112 % WT
Human CD33 D79A
  Mean % WT Binding: 102 % WT
Human CD33 F61A
  Mean % WT Binding: 135 % WT
Human CD33 T86A
  Mean % WT Binding: 113 % WT
Human CD33 K52A
  Mean % WT Binding: 94.9 % WT
Human CD33 F43A
  Mean % WT Binding: 10.6 % WT
Human CD33 W60A
  Mean % WT Binding: 2.8 % WT
Human CD33 G64A
  Mean % WT Binding: 114 % WT
Human CD33 W22A
  Mean % WT Binding: 110 % WT
Human CD33 E63A
  Mean % WT Binding: 107 % WT
Human CD33 D18A
  Mean % WT Binding: 119 % WT
Human CD33 R62A
  Mean % WT Binding: 124 % WT
Human CD33 I47A
  Mean % WT Binding: 2.1 % WT
Human CD33 V82A
  Mean % WT Binding: 116 % WT
Human CD33 P46A
  Mean % WT Binding: 104 % WT
Human CD33 E85A
  Mean % WT Binding: 114 % WT
Human CD33 G58A
  Mean % WT Binding: 118 % WT
Human CD33 H45A
  Mean % WT Binding: 73.6 % WT
Human CD33 N20A
  Mean % WT Binding: 121 % WT
Human CD33 T30A
  Mean % WT Binding: 92.1 % WT
Human CD33 Q24A
  Mean % WT Binding: 103 % WT
Human CD33 N53A
  Mean % WT Binding: 96 % WT
Human CD33 G88A
  Mean % WT Binding: 110 % WT
Human CD33 F90A
  Mean % WT Binding: 104 % WT
Human CD33 S68A
  Mean % WT Binding: 112 % WT
Human CD33 E81A
  Mean % WT Binding: 107 % WT
Human CD33 V56A
  Mean % WT Binding: 80.7 % WT
Human CD33 V31A
  Mean % WT Binding: 106 % WT
Human CD33 V29A
  Mean % WT Binding: 100 % WT
Human CD33 R69A
  Mean % WT Binding: 138 % WT
Human CD33 I67A
  Mean % WT Binding: 122 % WT
Human CD33 K77A
  Mean % WT Binding: 123 % WT
